Positions count from the first letter of the chain named. Ends that are not written are not given here. * marks the point of attachment. FITC = O=C1OC2(c3ccc(O)cc3Oc3cc(O)ccc32)c2ccc(NC(=S)*)cc21
B1: Fox3p: 3-ketoacyl-CoA thiolase, PTS2 import pathway (protein, UniProt P27796 16-417, looked up)
3-ketoacyl-CoA thiolase, …: AMGKGESKRKNSLLEKRPEDVVIVAANRSAIGKGFKGAFKDVNTDYLLYNFLNEFIGRFPEPLRADLNLIEEVACGNVLNVGAGATEHRAACLASGIPYSTPFVALNRQCSSGLTAVNDIANKIKVGQIDIGLALGVESMTNNYKNVNPLGMISSEELQKNREAKKCLIPMGITNENVAANFKISRKDQDEFAANSYQKAYKAKNEGLFEDEILPIKLPDGSICQSDEGPRPNVTAESLSSIRPAFIKDRGTTTAGNASQVSDGVAGVLLARRSVANQLNLPVLGRYIDFQTVGVPPEIMGVGPAYAIPKVLEATGLQVQDIDIFEINEAFAAQALYCIHKLGIDLNKVNPRGGAIALGHPLGCTGARQVATILRELKKDQIGVVSMCIGTGMGAAAIFIKE
B2: Cat2p nonapeptide, FITC-YNENKRKAKL (peptide)
peptide: {FITC}-YNENKRKAKL
notes: tyrosine added to the peptide amino-terminus for concentration measurements; the nine carboxy-terminal residues of Cat2p (carnitine acetyl-CoA transferase), S. cerevisiae; An extra N-terminal tyrosine stands before the natural stretch; also called Cat2p peptide; source: synthetic peptide (GenScript)
B3: Pcs60p nonapeptide, FITC-YKSSRNKSKL (peptide)
peptide: {FITC}-YKSSRNKSKL
notes: tyrosine added to the peptide amino-terminus for concentration measurements; the nine carboxy-terminal residues of Pcs60p, S. cerevisiae; An extra N-terminal tyrosine stands before the natural stretch; also called Pcs60p peptide; source: synthetic peptide (GenScript)
B4: Lys1p nonapeptide, FITC-YARVKRSSRL (peptide)
peptide: {FITC}-YARVKRSSRL
notes: tyrosine added to the peptide amino-terminus for concentration measurements; the nine carboxy-terminal residues of Lys1p (saccharopine dehydrogenase), S. cerevisiae; An extra N-terminal tyrosine stands before the natural stretch; also called Lys1p peptide; source: synthetic peptide (GenScript)
B5: Mdh3p: peroxisomal malate dehydrogenase (protein, UniProt P32419 2-343, looked up)
Malate dehydrogenase, …: VKVAILGASGGVGQPLSLLLKLSPYVSELALYDIRAAEGIGKDLSHINTNSSCVGYDKDSIENTLSNAQVVLIPAGVPRKPGLTRDDLFKMNAGIVKSLVTAVGKFAPNARILVISNPVNSLVPIAVETLKKMGKFKPGNVMGVTNLDLVRAETFLVDYLMLKNPKIGQEQDKTTMHRKVTVIGGHSGETIIPIITDKSLVFQLDKQYEHFIHRVQFGGDEIVKAKQGAGSATLSMAFAGAKFAEEVLRSFHNEKPETESLSAFVYLPGLKNGKKAQQLVGDNSIEYFSLPIVLRNGSVVSIDTSVLEKLSPREEQLVNTAVKELRKNIEKGKSFILDSSKL
B6: Cta1p: protein mislocalized to the cytosol in pex8Δ cells in a previous study (protein, UniProt P15202 2-515, looked up)
Peroxisomal catalase A: SKLGQEKNEVNYSDVREDRVVTNSTGNPINEPFVTQRIGEHGPLLLQDYNLIDSLAHFNRENIPQRNPHAHGSGAFGYFEVTDDITDICGSAMFSKIGKRTKCLTRFSTVGGDKGSADTVRDPRGFATKFYTEEGNLDWVYNNTPVFFIRDPSKFPHFIHTQKRNPQTNLRDADMFWDFLTTPENQVAIHQVMILFSDRGTPANYRSMHGYSGHTYKWSNKNGDWHYVQVHIKTDQGIKNLTIEEATKIAGSNPDYCQQDLFEAIQNGNYPSWTVYIQTMTERDAKKLPFSVFDLTKVWPQGQFPLRRVGKIVLNENPLNFFAQVEQAAFAPSTTVPYQEASADPVLQARLFSYADAHRYRLGPNFHQIPVNCPYASKFFNPAIRDGPMNVNGNFGSEPTYLANDKSYTYIQQDRPIQQHQEVWNGPAIPYHWATSPGDVDFVQARNLYRVLGKQPGQQKNLAYNIGIHVEGACPQIQQRVYDMFARVDKGLSEAIKKVAEAKHASELSSNSKF

Columns and labels:
Pex5p^2D cells = test: Fluorescence microscopy, peroxisomal import of GFP-tagged proteins in Pex5p^2D-expressing cells; assay type: cell-based, S. cerevisiae; parameters: key to import phenotype category: showed a reduced peroxisomal import and constitute category 1; category 2 characterized by no peroxisomal import; without a noticeable effect on import in Pex5p^2D cells (category 3); conditions: GFP-tagged protein, Pex5p^2D-expressing cells; Pex3p-mCherry marker; SD medium, 2% glucose; assessed manually
Description: Query strains were constructed on the basis of an automated mating compatible strain. The query strains contained a peroxisomal marker (Pex3p-mCherry::HIS), a deletion of PEX5 (pex5Δ::NAT) and a plasmid expressing WT or mutant PEX5 (PEX5^WT, PEX5^2D or PEX5^2A). Using an automated mating method ([Cohen and Schuldiner 2011]; [Tong and Boone 2006]), the query strains were crossed with a NOP1pr-N′-GFP-peroxi library ([Dahan et al. 2017]). The NOP1pr-N′-GFP-peroxisomal library is a collection of ∼90 strains containing all the known peroxisomal proteins together with potential peroxisomal proteins and controls, genomically tagged with GFP at their N-terminus and expressed under the generic constitutive SpNOP1 promoter. To perform the manipulations in high-density format we used a RoToR bench top colony arrayer (Singer Instruments). In short: mating was performed on rich medium plates, and selection for diploid cells was performed on SD(MSG)-HIS-URA plates containing Geneticin (200 μg ml^−1) and Nourseothricin (200 μg ml^−1). Sporulation was induced by transferring cells to nitrogen starvation media plates for 7 days. Haploid cells containing the desired mutations were selected by transferring cells to SD-URA-HIS-LYS-ARG-LEU plates containing Geneticin and Nourseothricin (same concentrations as above), alongside the toxic amino acid derivatives Canavanine and Thialysine (Sigma-Aldrich) to select against remaining diploids and select for spores with an α mating type. A similar method was used to generate control, pex5Δ, and pex8Δ strains expressing GFP-Mdh3p (Supplementary Figure 4D), in which the query strain contained a peroxisomal marker (Pex3p-mCherry::NAT) and URA3::GFP-Mdh3p. This query strain was crossed with three strains from the mini peroxisomal deletion library ([Gabay-Maskit et al. 2020]): a control (no deletion), pex5Δ, and pex8Δ strain, all of which contain KAN (Geneticin) resistance.
The yeast collections were visualized using an automated microscopy setup as described previously ([Breker et al. 2013]). In short: cells were transferred from agar plates into 384-well polystyrene plates (Greiner) for growth in liquid media using the RoToR arrayer robot. Liquid cultures were grown in a LiCONiC incubator, overnight at 30 °C in SD-URA-HIS medium. A JANUS liquid handler (PerkinElmer) connected to the incubator was used to dilute the strains to an OD600 of ∼0.2 into plates containing SD medium (6.7 g l^−1 yeast nitrogen base and 2% glucose) supplemented with complete amino acids. Plates were incubated at 30 °C for 4 h. The cultures in the plates were then transferred by the liquid handler into glass-bottom 384-well microscope plates (Matrical Bioscience) coated with Concanavalin A (Sigma-Aldrich). After 20 min, cells were washed three times with SD-Riboflavin complete medium to remove non-adherent cells and to obtain a cell monolayer. The plates were then transferred to the ScanR automated inverted fluorescent microscope system (Olympus) using a robotic swap arm (Hamilton). Images of cells in the 384-well plates were recorded in the same liquid as the washing step at 24 °C using a 60× air lens (NA 0.9) and with an ORCA-ER charge-coupled device camera (Hamamatsu). Images were acquired in two channels: GFP (excitation filter 490/20 nm, emission filter 535/50 nm) and mCherry (excitation filter 572/35 nm, emission filter 632/60 nm). All images were taken at a single focal plane. The same protocol was used to visualize fluorescence signals in GFP-Mdh3p-expressing control, pex5Δ, and pex8Δ strains (Supplementary Figure 4D).

yeast peroxisomes = conditions: under both glucose and oleate condition; ref Rosenthal et al. 2020; cited from earlier work
Description: We classified PTS1-proteins into three different categories according to the observed import phenotypes. […] In contrast, peroxisomal NADP-dependent isocitrate dehydrogenase (Idp3p; Figure 4C) and malate synthase 1 (Mls1p; Figure 4D) belong to category 2 characterized by no peroxisomal import (Supplementary Fi ...

pex8Δ cells = conditions: ref Rehling et al. 2000; cited from earlier work
Description: Among the proteins with reduced peroxisomal import in Pex5p^2D cells (category 1) is Pex8p, an essential component of the import machinery for peroxisomal matrix proteins and required for the biogenesis of functional peroxisomes ([Agne et al. 2003]; [Rehling et al. 2000]), which may raise the question if the reduced import of most PTS1 proteins in Pex5p^2D cells is a consequence of decreased peroxisomal Pex8p levels.

[1] = target: T1, Pex5p wildtype, recombinant His6-tagged (HisPex5p) (S. cerevisiae, UniProt P35056 1-612); test: fluorescence polarisation; fluorescence anisotropy; 10 nM FITC-labelled peptide, serial dilutions of Pex5p variant 1.5 nM to 6.6 µM; 50 mM HEPES pH 7.5, 150 mM NaCl; one-site binding-saturation fit; conditions: both partners purified
T1 construct: Pex5p, PTS1 receptor of Saccharomyces cerevisiae, UniProtKB P35056, full length; No cleavage of the His tag is described; the native MS mass of the monomer is printed as 71.459 kDa; also called Pex5p^WT; source: E. coli BL21 RIL (DE3), purified (Ni-NTA, MonoQ anion exchange, SEC)
T1 sequence (looked up): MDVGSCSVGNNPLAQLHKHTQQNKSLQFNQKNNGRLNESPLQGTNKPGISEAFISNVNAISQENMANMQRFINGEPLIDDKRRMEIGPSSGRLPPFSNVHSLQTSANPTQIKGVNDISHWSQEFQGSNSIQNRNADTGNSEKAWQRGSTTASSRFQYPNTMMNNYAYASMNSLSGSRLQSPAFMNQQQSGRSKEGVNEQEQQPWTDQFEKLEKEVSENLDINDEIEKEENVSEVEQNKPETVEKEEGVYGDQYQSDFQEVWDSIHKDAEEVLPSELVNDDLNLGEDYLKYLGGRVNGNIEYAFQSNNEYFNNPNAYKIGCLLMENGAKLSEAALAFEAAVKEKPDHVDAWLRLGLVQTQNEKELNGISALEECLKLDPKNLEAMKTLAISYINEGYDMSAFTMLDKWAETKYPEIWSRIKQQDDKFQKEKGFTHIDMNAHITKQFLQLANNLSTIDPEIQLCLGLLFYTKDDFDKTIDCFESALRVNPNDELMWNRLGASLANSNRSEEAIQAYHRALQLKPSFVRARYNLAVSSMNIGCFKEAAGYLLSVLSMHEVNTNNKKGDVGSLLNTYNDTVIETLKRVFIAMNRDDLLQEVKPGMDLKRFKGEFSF

[2] = target: T2, Pex5p-S507/523D, recombinant His6-tagged phospho-mimicking mutant (S. cerevisiae, UniProt P35056 1-612, S507D | S523D); test: as above; conditions: both partners purified
T2 construct: Pex5p, PTS1 receptor of Saccharomyces cerevisiae, UniProtKB P35056, full length, with S507D and S523D; No cleavage of the His tag is described; the native MS mass of the monomer is printed as 71.515 kDa; also called Pex5p^2D; Pex5p-S507D/523D; source: E. coli BL21 RIL (DE3), purified (Ni-NTA, MonoQ anion exchange, SEC)
T2 sequence (looked up): T1 sequence (looked up) with S507D, S523D

Row | Molecule | import phenotype category (Pex5p^2D cells) | targeting priority to peroxisomes (yeast peroxisomes) | subcellular distribution (pex8Δ cells) | Kd [1] [nM] | further results
1 | Cat2p: carnitine acetyl-CoA transferase ({FITC}-YNENKRKAKL) | category 3 | high targeting priority |  |  | 
2 | Lys1p: saccharopine dehydrogenase ({FITC}-YARVKRSSRL) | category 3 | high targeting priority |  |  | 
3 | Pcs60p: peroxisomal oxalyl-CoA synthetase, PTS1-protein | category 1 |  | mislocalization |  | 
4 | B1 |  |  | mislocalization |  | 
5 | B2 |  |  |  | 116 | Kd [2]: 896 nM
6 | B3 |  |  |  | 643 | 
7 | B4 |  |  |  | 88.8 | Kd [2]: 3690 nM
8 | B5 | category 3 | high targeting priority |  |  | 
9 | B6 |  |  | mislocalization |  | 

Source: article PMC9929924, “Phosphorylation of the receptor protein Pex5p modulates import of proteins into peroxisomes” (Biological Chemistry, 2022)
